In patent US8465981B2, “Polypeptides, systems, and methods useful for detecting glucose” (University of Kentucky Research Foundation, priority 2007, dated 2013):

B1: fragment containing amino acids 87-271: fragment containing amino acids 87-271 of wtGBP from E. coli (SEQ ID NO: 1) (protein)
chain: VVFFNKEPSRKALDSYDKAYYVGTDSKESGIIQGDLIAKHWAANQGWDLNKDGQIQFVLLKGEPGCPDAEARTTYVIKELNDKGIKTEQLQLDTAMWDTAQAKDKMDAWLSGPNANKIEVVIANNDAMAMGAVEALKAHNKSSIPVFGVDALPEALALVKSGALAGTVLNDANNQAKATFDLAKN
modifications: E. Coli
B2: SEQ ID NO: 3, where all natural tryptophans are replaced with 5-fluorotryptophans: unnatural analogue fragment of wtGBP, MDCC labeled (protein)
chain: DNFMSVVRKAIEQDAKAAPDVQLLMNDSQNDQSKQNDQIDVLLAKGVKALAINLVDPAAAGTVIEKARGQNVPVVFFNKEPSRKALDSYDKAYYVGTDSKESGIIQGDLIAKHWAANQGWDLNKDGQIQFVLLKGEPGHPDAEARTTYVIKELNDKGIKTEQLQLDTAMWDTAQAKDKMDAWLSGPNANKIEVVIANNDAMAMGAVEALKAHNKSSIPVFGVDALPEALALVKSGALAGTVLN
modifications: all Trp to 5-fluorotryptophan; MDCC label; E. Coli
notes: unnatural analogue fragment of wtGBP, MDCC labeled
B3: SEQ ID NO: 3, where all natural leucines are replaced with 5,5,5-trifluoroleucines: unnatural analogue fragment of wtGBP, MDCC labeled (protein)
chain: B2 chain
modifications: all Leu to 5,5,5-trifluoroleucine; MDCC label; E. Coli
notes: as for B2
B4: tGBP2: fragment of wtGBP from E. coli including amino acids 14-256 of SEQ ID NO: 1 (protein)
chain: B2 chain
modifications: E. Coli

Key:
Assay type in all cases: binding
[1] = Fragments of wtGBP in response to glucose: fluorescence quenching of labeled tGBPs; settings: labeled tGBP 1×10^-7 M
Experimental: (§1) Once the PCR amplified gene fragments were obtained, they were inserted into expression vector pQE70. The constructed expression plasmids were then transformed into the auxotrophic strain of E. coli. Protein expression was performed using medium shift method. A single freshly transformed colony was used to inoculate 5 mL of M9 media supplemented with 0.4% glucose; 1 mM MgSO4; 0.1 mM CaCl2; 1 mM Thiamine; 0.1 volume of a solution containing 0.01% (w/v) each of 20 amino acids, less any amino acid that is to be replaced by unnatural amino acids (e.g., each of 19 amino acids where one is to be replaced); 40 μg/mL of the remaining amino acid(s) (e.g., 20th amino acid), and appropriate amount of antibiotic. T his culture was allowed to grow overnight at 37° C., 250 rpm. 500 mL culture containing the same ingredients was inoculated with the overnight grown 5 mL culture. This culture was then grown until the optical density (OD600) was about 0.5. The cells were then centrifuged at 10000 rpm for 10 min, 25° C., the supernatant was discarded and the cells were resuspended in a 0.9% NaCl solution for washing, and this was repeated three times. The cells were then resuspended in 500 mL M9 minimal media which was supplemented with 0.4% glucose, 1 mM MgSO4, 0.1 mM CaCl2, 1 mM Thiamine, 0.1 volume of a solution containing 0.01% (w/v) each of 20 amino acids less any amino acid(s) to be replaced by unnatural amino acids (e.g., 19 amino acids), appropriate amount of antibiotic, and grown at 37° C. for 30 min to further deplete natural amino acid that has to be replaced by the unnatural amino acid. 1 mM IPTG was then added with 0.1 mM of unnatural amino acid to the culture and was grown overnight at 37° C. The cells were harvested by centrifugation and the protein was purified using Ni-NTA resin since GBP mutant has His-tag. The purified protein was then labeled with fluorophore MDCC (N-[2-(1-maleimidyl(ethyl]-7-(diethylamino)coumarin-3-carboxamide), e.g., labeled at cysteine-152 of SEQ ID NO: 1.
Fragments of wtGBP in Response to Glucose. In order to check for activity of the labeled tGBPs, an assay was performed. Upon glucose binding, the proteins should undergo a conformational change, resulting in a change in the local environment of the fluorophore molecule, which leads to a change in the fluorescence signal observed. The assay was carried out by preparing glucose solutions of concentrations ranging from 1×10^−1M to 1×10^−6M. These glucose standards were then added to 180 μL samples of the labeled tGBPs at a concentration of 1×10^−7M. The resulting fluorescence intensity was measured. The results obtained from one study including the isolated polypeptide molecules of SEQ ID NO: 2 (tGBP1) and SEQ ID NO: 3 (tGBP2) are presented in Table C.

[2] = Fluorescence response to glucose of MDCC-labeled fragment amino acids 87-271 of wtGBP
Source text: Expression and Labeling of Isolated Polypeptide Molecules. In order to obtain the gene for insertion into an expression vector, PCR amplification was employed. Primers were designed to amplify isolated polypeptide molecules of interest, e.g., polypeptide molecules of SEQ ID NOS: 1-7, and a fragment including amino acids 87-271 of SEQ ID NO: 1.
as §1

[3] = Unnatural analogues of wtGBP in response to glucose: fluorescence dose response; settings: labeled protein 5×10^-7 M, glucose 10^-2 M-10^-8 M, 15 min, room temperature
Source text: Unnatural Analogues of wtGBP with Unnatural Tryptophans. Unnatural analogues of wtGBP from E. coli were produced, where natural tryptophans were replaced with unnatural tryptophans. Tryptophan auxotrophic strain of E. coli (#27873) was obtained. Plasmid placI and plasmid pQE70 containing the genetic sequence of the wtGBP mutated at 152 (containing a cysteine in this position for fluorophore attachment) were transformed into the tryptophan auxotrophic strain of E. coli. Protein expression was performed using medium shift method. A single freshly transformed colony was used to inoculate 5 mL of M9 media supplemented with 0.4% glucose, 1 mM MgSO4, 0.1 mM CaCl2, 1 mM Thiamine, 0.1 volume of a solution containing 0.01% (w/v) each of 18 amino acids (less Trp and Leu), 40 μg/mL Leu, 40 μg/mL Trp, 100 μg/mL Ampicillin, and 35 μg/mL Chloramphenicol.
This culture was allowed to grow overnight at 37° C., 250 rpm. 500 mL culture containing the same ingredients was inoculated with the overnight grown 5 mL culture. This culture was then grown till the optical density (OD600) was about 0.5. […]
Unnatural Analogues of wtGBP in Response to Glucose. […] Fluorescence of the samples was then measured using a Carry Eclipse Fluorimeter.

Molecule	Percent Fluorescence Quenching ([1]; Glucose 1 × 10^-1 M) [%]	Percent Fluorescence Quenching ([1]; Glucose 1 × 10^-2 M) [%]	Percent Fluorescence Quenching ([1]; Glucose 1 × 10^-3 M) [%]	Percent Fluorescence Quenching ([1]; Glucose 1 × 10^-4 M) [%]	Percent Fluorescence Quenching ([1]; Glucose 1 × 10^-5 M) [%]	Percent Fluorescence Quenching ([1]; Glucose 1 × 10^-6 M) [%]	Change in fluorescence intensity with increasing concentrations of glucose [3]	other results
tGBP1: fragment of wtGBP from E. coli including amino acids 14-296 of SEQ ID NO: 1	20.37	14.61	7.5538	2.433	2.908	−0.09539	–	–
B1	–	–	–	–	–	–	–	Fluorescence Intensity (AVG) ([2]; Glucose Concentration 0 M): 485.282; Fluorescence Intensity (AVG) ([2]; Glucose Concentration 1.00E-03 M): 468.792; Fluorescence Intensity (AVG) ([2]; Glucose Concentration 1.00E-04 M): 467.383; Fluorescence Intensity (AVG) ([2]; Glucose Concentration 1.00E-05 M): 478.877; Fluorescence Intensity (AVG) ([2]; Glucose Concentration 1.00E-06 M): 497.146; Fluorescence Intensity (AVG) ([2]; Glucose Concentration 1.00E-07 M): 463.041; Fluorescence Intensity (AVG) ([2]; Glucose Concentration 1.00E-08 M): 442.682; Response to glucose (trend of fluorescence) ([2]; glucose 0 to 1.00E-03 M): large error and no clear trend in response to glucose
B2	–	–	–	–	–	–	dose-dependent change in fluorescence intensities	–
B3	–	–	–	–	–	–	dose-dependent change in fluorescence intensities	–
B4	6.266	7.502	8.966	5.874	2.795	1.748	–	–
